Data: US20230127087, “GLYPICAN-3-SPECIFIC MODIFIED APTAMER AND USE THEREOF” (APTAMER SCIENCES INC., published 2023)

Experiments:
Glypican-3 (GPC3) [1] = molecular target: T1, Glypican-3 (GPC3) (UniProt P51654 P51654:25-554); assay: filter; gemcitabine in loop; values only in figure
Glypican-3 (GPC3) [2] = molecular target: T1, Glypican-3 (GPC3); assay: filter; gemcitabine at 3' end; values only in figure
Glypican-3 (GPC3) [3] = molecular target: T1, Glypican-3 (GPC3); assay: Kd similar to 12-10; GPC3-Cy5; value only in figure; details: label: 5' Cy5 (cell assays)

T1 sequence (P51654 25-554, one chain of several): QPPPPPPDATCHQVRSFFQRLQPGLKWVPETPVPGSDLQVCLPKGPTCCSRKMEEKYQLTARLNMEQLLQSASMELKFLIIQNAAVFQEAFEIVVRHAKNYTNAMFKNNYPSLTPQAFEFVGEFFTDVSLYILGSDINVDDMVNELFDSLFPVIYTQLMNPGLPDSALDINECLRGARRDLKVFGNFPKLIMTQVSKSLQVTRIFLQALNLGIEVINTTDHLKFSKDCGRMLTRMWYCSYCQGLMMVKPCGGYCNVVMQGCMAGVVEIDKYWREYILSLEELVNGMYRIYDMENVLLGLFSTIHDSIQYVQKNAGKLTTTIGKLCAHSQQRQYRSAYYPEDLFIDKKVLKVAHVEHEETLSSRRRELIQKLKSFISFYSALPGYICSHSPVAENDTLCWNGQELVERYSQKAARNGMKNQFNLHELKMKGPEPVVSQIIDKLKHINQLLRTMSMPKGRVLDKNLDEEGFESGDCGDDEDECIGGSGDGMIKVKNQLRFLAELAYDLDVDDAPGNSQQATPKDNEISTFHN

B1: 12-10 G(2)L (ssDNA)
DNA: GGGAAGTGAATGCGTTGAATTATGTCCCTTCAGTCATCAC
modifications: n = BzdU; S = gemcitabine [BzdU (T) at 7,11,15,16,20,21,23,25,29,30,34,37; gemcitabine (C) at 26,27]
- binding result (Glypican-3 (GPC3) [1]): binds

B2: 12-10 G(2)3' (ssDNA)
DNA: GGGAAGTGAATGCGTTGAATTATGTCCCTTCAGTCATCACCA
modifications: n = BzdU; S = gemcitabine [BzdU (T) at 7,11,15,16,20,21,23,25,29,30,34,37; gemcitabine (C) at 40,41]
- binding result (Glypican-3 (GPC3) [2]): binds

Binder: GTGAATGCGTTGAATTATGTCCCTTCAGTCATCAC (ssDNA, n = BzdU; 3' idT) [12-12]
- binding result (Glypican-3 (GPC3) [3]): binds
